Assay results taken from publication PMC2917185.

How the values were obtained:
[1] = target: LHCP (light-harvesting chlorophyll a/b binding protein), fluorescein-labeled (UniProt P07371); test: fluorescence polarisation
cpSRP43 (mature) = cpSRP43 (mature) (UniProt O22265); test: fluorescence polarisation

Substance	Kd [1] [nM]	Ki (cpSRP43 (mature)) [nM]
cpSRP43 ΔCD3 (domain or fragment)	886	
L18 peptide		2200
cpSRP43 ΔCD2 (domain or fragment)	530	
